The record followed here is article doi:10.1101/2023.07.03.547386.

The experiment deals with ATG8CL (recombinant, purified) (potato). Nature of the experiment: ITC. (In general: In ITC the heat of successive injections is recorded.)
Sequence of ATG8CL (recombinant, purified) (potato) (M1C146 whole entry): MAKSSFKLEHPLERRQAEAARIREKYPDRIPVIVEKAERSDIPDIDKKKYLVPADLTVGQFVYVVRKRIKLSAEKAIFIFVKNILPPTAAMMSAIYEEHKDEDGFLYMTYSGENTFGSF

With Rab3GAPL AIM peptide (Rab3GAPL-AIMp), the Kd amounted to 962 nM and the stoichiometry N turned out to be 1.03.

As usually defined, the Kd is the free concentration of one partner at which half of the binding sites on the other are occupied at equilibrium, for simple one-to-one binding. What is called stoichiometry N is the number of molecules, sites or subunits per partner or assembly.
